The values that follow come from PMC5063618 (Molecular Biology of the Cell, 2016).

In data set [1] the target is T1, rabbit skeletal muscle actin, as filaments (rabbit, UniProt P68135 1-377). Nature of the data set: co-sedimentation.
Data set [2] concerns the target T1, rabbit skeletal muscle actin, as …. Nature of the data set: co-sedimentation. This is another data set of the same source.
Data set [3] has the same target. Put plainly: co-sedimentation. This is another data set of the same source.
Data set [4] shares this target. Put plainly: co-sedimentation. This is another data set of the same source.
The target is the same in data set [5]. Put plainly: co-sedimentation. The source holds these as a separate data set.
For data set [6] the target is unchanged. Put plainly: co-sedimentation. The source holds these as a separate data set.
Data set [7] has the same target. Put plainly: co-sedimentation. This is another data set of the same source.
Data set [8] concerns the molecule itself. Put plainly: AUC.
Data set [9] addresses T1, rabbit skeletal muscle actin, as …. Nature of the data set: TIRF microscopy, fluorescence decay after washout.
Data set [10] has the same target. Nature of the data set: TIRF microscopy, fluorescence decay after washout. This is another data set of the same source.
Data set [11] has the same target. Put plainly: TIRF microscopy, fluorescence decay after washout. The source holds these as a separate data set.
For data set [12] the target is unchanged. Nature of the data set: TIRF microscopy, fluorescence decay after washout. The source holds these as a separate data set.
For data set [13] the target is unchanged. Nature of the data set: TIRF microscopy, fluorescence decay after washout. The source holds these as a separate data set.
Data set [14] has the same target. Nature of the data set: TIRF microscopy, fluorescence decay after washout. The source holds these as a separate data set.
Data set [15] shares this target. Nature of the data set: TIRF microscopy, fluorescence decay after washout. The source holds these as a separate data set.
The target is the same in data set [16]. Nature of the data set: TIRF microscopy, fluorescence decay after washout. This is another data set of the same source.
The target is the same in data set [17]. Nature of the data set: TIRF microscopy, fluorescence decay after washout. This is another data set of the same source.
Data set [18] has the same target. Put plainly: TIRF microscopy, fluorescence decay after washout. This is another data set of the same source.
The target is the same in data set [19]. Nature of the data set: TIRF microscopy, fluorescence decay after washout. This is another data set of the same source.
For data set [20] the target is unchanged. Put plainly: TIRF microscopy, fluorescence decay after washout. This is another data set of the same source.
The target is the same in data set [21]. Put plainly: TIRF microscopy, fluorescence decay after washout. The source holds these as a separate data set.

Where two headings read alike, the source gives them in different places.

B1: human Drp1 isoform 000 (dynamin-related protein-1), wild type (enzyme, UniProt O00429-4 1-699, looked up)
chain: MEALIPVINKLQDVFNTVGADIIQLPQIVVVGTQSSGKSSVLESLVGRDLLPRGTGIVTRRPLILQLVHVSQEDKRKTTGEENGVEAEEWGKFLHTKNKLYTDFDEIRQEIENETERISGNNKGVSPEPIHLKIFSPNVVNLTLVDLPGMTKVPVGDQPKDIELQIRELILRFISNPNSIILAVTAANTDMATSEALKISREVDPDGRRTLAVITKLDLMDAGTDAMDVLMGRVIPVKLGIIGVVNRSQLDINNKKSVTDSIRDEYAFLQKKYPSLANRNGTKYLARTLNRLLMHHIRDCLPELKTRINVLAAQYQSLLNSYGEPVDDKSATLLQLITKFATEYCNTIEGTAKYIETSELCGGARICYIFHETFGRTLESVDPLGGLNTIDILTAIRNATGPRPALFVPEVSFELLVKRQIKRLEEPSLRCVELVHEEMQRIIQHCSNYSTQELLRFPKLHDAIVEVVTCLLRKRLPVTNEMVHNLVAIELAYINTKHPDFADACGLMNNNIEEQRRNRLARELPSAVSRDKVASGGGGVGDGVQEPTTGNWRGMLKTSKAEELLAEEKSKPIPIMPASPQKGHAVNLLDVPVPVARKLSAREQRDCEVIERLIKSYFLIVRKNIQDSVPKAVMHFLVNHVKDTLQSELVGQLYKSSLLDDLLTESEDMAQRRKEAADMLKALQGASQIIAEIRETHLW
Consider B1, for which the Kd (usually the concentration at which binding is half-saturated) in [1] came out at 600 nM; in [2], 200 nM; in [3], 2800 nM; in [4], 800 nM; in data set [5], 500 nM; in data set [6], 400 nM. For the same molecule, the dissociation constant Kd in data set [7] came out at 1100 nM. The stoichiometry N (as a rule, the number of molecules, sites or subunits per partner or assembly) in data set [8] stood at 4.

B2: GFP-Drp1 (human Drp1 isoform 000 with N-terminal GFP A206K) (enzyme)
chain: MEALIPVINKLQDVFNTVGADIIQLPQIVVVGTQSSGKSSVLESLVGRDLLPRGTGIVTRRPLILQLVHVSQEDKRKTTGEENGVEAEEWGKFLHTKNKLYTDFDEIRQEIENETERISGNNKGVSPEPIHLKIFSPNVVNLTLVDLPGMTKVPVGDQPKDIELQIRELILRFISNPNSIILAVTAANTDMATSEALKISREVDPDGRRTLAVITKLDLMDAGTDAMDVLMGRVIPVKLGIIGVVNRSQLDINNKKSVTDSIRDEYAFLQKKYPSLANRNGTKYLARTLNRLLMHHIRDCLPELKTRINVLAAQYQSLLNSYGEPVDDKSATLLQLITKFATEYCNTIEGTAKYIETSELCGGARICYIFHETFGRTLESVDPLGGLNTIDILTAIRNATGPRPALFVPEVSFELLVKRQIKRLEEPSLRCVELVHEEMQRIIQHCSNYSTQELLRFPKLHDAIVEVVTCLLRKRLPVTNEMVHNLVAIELAYINTKHPDFADACGLMNNNIEEQRRNRLARELPSAVSRDKVASGGGGVGDGVQEPTTGNWRGMLKTSKAEELLAEEKSKPIPIMPASPQKGHAVNLLDVPVPVARKLSAREQRDCEVIERLIKSYFLIVRKNIQDSVPKAVMHFLVNHVKDTLQSELVGQLYKSSLLDDLLTESEDMAQRRKEAADMLKALQGASQIIAEIRETHLW
As for B2, the t1/2 of dissociation in [9] turned out to be 93.1 ± 88 s; in data set [10], 40 ± 20.3 s; in data set [11], 9.8 s; in [12] it was 48.7 ± 20.6 s; in data set [13] it was 93.2 ± 94.5 s; in data set [14] it was 9.9 ± 4.4 s. In addition, the t1/2 of dissociation in data set [15] came out at 16.5 ± 2.5 s; in data set [16], 26.9 ± 20.6 s; in [17], 84.1 ± 93.6 s; in data set [18], 8.1 ± 4.3 s; in data set [19], 4.1 ± 1.4 s; in data set [20], 5.4 ± 2 s. For the same molecule, the t1/2 of dissociation in data set [21] worked out at 115 ± 43.5 s.
